Earlier results as cited in paper PMC5298935.
pKd: −log10 of the molar value.

Tests used:
[1] = target: IRAK1 p144 peptide UD (Homo sapiens) (UniProt P51617); test: NMR
[2] = target: IRAK1 p173 peptide UD (Homo sapiens) (UniProt P51617); test: NMR
[3] = target: IRAK1 p131 peptide UD (Homo sapiens) (UniProt P51617); test: NMR
[4] = target: IRAK1 p173 peptide 157-180 (Homo sapiens) (UniProt P51617); test: NMR titration
[5] = target: IRAK1 p144 peptide 140-149 (Homo sapiens) (UniProt P51617); test: NMR titration
Sequence of IRAK1 p144 peptide 140-149 (Homo sapiens) (P51617 whole entry, looked up, tested part not stated): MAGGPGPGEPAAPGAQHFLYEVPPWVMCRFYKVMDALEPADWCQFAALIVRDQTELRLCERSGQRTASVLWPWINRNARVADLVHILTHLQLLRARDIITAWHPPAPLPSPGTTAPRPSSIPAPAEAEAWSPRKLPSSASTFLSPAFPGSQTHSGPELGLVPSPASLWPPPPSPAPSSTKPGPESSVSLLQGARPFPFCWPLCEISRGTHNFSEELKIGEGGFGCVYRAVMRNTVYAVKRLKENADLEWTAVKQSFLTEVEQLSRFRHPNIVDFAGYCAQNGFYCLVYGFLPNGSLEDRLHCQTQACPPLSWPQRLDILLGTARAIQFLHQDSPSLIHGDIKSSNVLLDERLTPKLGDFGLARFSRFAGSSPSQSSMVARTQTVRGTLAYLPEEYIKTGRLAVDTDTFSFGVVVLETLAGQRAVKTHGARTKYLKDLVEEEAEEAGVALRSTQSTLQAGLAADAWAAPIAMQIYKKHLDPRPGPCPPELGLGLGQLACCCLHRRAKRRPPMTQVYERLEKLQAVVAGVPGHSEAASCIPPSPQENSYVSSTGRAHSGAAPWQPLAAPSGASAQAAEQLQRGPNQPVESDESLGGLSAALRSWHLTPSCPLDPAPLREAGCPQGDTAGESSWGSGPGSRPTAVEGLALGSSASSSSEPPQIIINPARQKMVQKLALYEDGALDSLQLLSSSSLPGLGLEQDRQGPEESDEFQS

Sequence of Pin1 WW (Q13526 2-42): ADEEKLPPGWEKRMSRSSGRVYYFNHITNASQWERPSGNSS
Sequence of Pin1 WW domain 1-50 (Q13526 1-50): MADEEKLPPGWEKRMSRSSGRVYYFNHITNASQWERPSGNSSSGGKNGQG
Sequence of IRAK1 p144 peptide UD (Homo sapiens) (P51617 whole entry, looked up, tested part not stated): as the sequence (P51617 whole entry, looked up, tested part not stated) above
Sequence of IRAK1 p131 peptide UD (Homo sapiens) (P51617 whole entry, looked up, tested part not stated): as above
Sequence of IRAK1 p173 peptide UD (Homo sapiens) (P51617 whole entry, looked up, tested part not stated): as above
Sequence of IRAK1 p173 peptide 157-180 (Homo sapiens) (P51617 157-180): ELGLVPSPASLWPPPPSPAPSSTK

pKd [1]	pKd [2]	pKd [3]	pKd [4]	pKd [5]	Substance
3.92	3.59	3.66			Pin1 WW (from UniProt Q13526)
			3.59	3.92	Pin1 WW domain 1-50 (from UniProt Q13526)
